Experiments:
[1] = biological target: ENPP2 on CHOK1 cells (UniProt Q13822 36-863); assay: flow cytometry on CHO cells overexpressing ENPP2
[2] = biological target: T1, cynomolgus monkey ENPP3 on HepG2-KO cyENPP3 OE cells (cynomolgus monkey, UniProt A0A2K5TKP4 1-874); assay: cell-based or functional assay
T1 sequence: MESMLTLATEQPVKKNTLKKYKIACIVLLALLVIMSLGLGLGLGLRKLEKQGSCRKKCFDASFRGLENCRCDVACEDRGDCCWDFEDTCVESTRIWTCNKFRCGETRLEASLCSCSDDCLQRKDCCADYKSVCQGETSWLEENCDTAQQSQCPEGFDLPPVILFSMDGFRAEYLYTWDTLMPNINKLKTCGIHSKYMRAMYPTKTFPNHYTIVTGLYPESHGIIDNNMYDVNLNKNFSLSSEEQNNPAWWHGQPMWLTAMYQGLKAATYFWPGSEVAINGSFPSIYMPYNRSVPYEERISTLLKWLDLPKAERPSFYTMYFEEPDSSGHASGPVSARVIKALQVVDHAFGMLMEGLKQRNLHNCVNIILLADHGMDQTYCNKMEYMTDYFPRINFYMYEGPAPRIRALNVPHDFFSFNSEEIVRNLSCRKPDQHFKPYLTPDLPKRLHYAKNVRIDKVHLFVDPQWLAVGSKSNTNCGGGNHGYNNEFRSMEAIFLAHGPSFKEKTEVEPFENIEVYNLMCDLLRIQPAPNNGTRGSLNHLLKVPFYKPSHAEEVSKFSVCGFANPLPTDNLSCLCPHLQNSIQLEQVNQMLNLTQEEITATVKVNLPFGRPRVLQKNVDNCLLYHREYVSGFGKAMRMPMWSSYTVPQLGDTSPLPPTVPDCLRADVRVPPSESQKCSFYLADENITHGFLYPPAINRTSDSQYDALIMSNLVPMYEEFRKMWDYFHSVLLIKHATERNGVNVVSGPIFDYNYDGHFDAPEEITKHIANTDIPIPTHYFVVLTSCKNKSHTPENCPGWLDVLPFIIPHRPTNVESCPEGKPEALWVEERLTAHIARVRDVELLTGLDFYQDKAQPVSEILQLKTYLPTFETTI

[3] = biological target: T2, human ENPP3 (human, UniProt O14638 46-875, limits assumed); assay: affinity; method and construct not stated
T2 construct: neither the construct nor the method is stated; also called ectonucleotide pyrophosphatase/phosphodiesterase family member 3
T2 sequence (looked up): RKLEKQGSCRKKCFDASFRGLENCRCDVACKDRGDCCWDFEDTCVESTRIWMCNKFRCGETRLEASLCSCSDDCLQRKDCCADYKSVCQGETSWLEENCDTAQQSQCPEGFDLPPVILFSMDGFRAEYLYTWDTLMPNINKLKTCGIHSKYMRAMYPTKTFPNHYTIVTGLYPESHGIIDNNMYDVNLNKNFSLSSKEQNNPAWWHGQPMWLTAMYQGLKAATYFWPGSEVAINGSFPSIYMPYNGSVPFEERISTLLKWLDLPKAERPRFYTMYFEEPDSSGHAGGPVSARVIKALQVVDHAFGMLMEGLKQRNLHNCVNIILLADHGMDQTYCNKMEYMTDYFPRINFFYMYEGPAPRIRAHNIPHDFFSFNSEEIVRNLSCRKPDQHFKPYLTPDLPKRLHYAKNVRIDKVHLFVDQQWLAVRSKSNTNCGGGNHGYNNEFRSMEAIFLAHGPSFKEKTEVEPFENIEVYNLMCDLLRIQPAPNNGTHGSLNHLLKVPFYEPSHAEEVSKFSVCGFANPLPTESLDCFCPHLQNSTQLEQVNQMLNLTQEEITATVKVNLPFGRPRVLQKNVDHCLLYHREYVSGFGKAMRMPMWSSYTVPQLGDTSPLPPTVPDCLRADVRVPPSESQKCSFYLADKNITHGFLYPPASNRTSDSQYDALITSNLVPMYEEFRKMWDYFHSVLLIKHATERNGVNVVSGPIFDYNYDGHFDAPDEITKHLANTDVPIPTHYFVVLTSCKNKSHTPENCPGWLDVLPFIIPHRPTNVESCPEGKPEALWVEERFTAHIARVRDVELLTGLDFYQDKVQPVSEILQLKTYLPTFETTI

[4] = biological target: T3, human CD3 (human, UniProt P07766 23-126, limits assumed); assay: affinity; method and construct not stated
T3 construct: also called CD3 epsilon
T3 sequence (P07766 23-126 limits assumed): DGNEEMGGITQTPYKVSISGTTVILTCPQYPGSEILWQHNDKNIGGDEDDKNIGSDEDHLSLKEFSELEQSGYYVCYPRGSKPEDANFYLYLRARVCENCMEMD

[5] = biological target: T4, ENPP1 on CHOK1 cells (UniProt P22413 1-925, limits assumed); assay: flow cytometry on CHO cells overexpressing ENPP1
T4 construct: whole, on cells; also called ectonucleotide pyrophosphatase/phosphodiesterase family member 1; CHO ENPP1 OE
T4 sequence (looked up): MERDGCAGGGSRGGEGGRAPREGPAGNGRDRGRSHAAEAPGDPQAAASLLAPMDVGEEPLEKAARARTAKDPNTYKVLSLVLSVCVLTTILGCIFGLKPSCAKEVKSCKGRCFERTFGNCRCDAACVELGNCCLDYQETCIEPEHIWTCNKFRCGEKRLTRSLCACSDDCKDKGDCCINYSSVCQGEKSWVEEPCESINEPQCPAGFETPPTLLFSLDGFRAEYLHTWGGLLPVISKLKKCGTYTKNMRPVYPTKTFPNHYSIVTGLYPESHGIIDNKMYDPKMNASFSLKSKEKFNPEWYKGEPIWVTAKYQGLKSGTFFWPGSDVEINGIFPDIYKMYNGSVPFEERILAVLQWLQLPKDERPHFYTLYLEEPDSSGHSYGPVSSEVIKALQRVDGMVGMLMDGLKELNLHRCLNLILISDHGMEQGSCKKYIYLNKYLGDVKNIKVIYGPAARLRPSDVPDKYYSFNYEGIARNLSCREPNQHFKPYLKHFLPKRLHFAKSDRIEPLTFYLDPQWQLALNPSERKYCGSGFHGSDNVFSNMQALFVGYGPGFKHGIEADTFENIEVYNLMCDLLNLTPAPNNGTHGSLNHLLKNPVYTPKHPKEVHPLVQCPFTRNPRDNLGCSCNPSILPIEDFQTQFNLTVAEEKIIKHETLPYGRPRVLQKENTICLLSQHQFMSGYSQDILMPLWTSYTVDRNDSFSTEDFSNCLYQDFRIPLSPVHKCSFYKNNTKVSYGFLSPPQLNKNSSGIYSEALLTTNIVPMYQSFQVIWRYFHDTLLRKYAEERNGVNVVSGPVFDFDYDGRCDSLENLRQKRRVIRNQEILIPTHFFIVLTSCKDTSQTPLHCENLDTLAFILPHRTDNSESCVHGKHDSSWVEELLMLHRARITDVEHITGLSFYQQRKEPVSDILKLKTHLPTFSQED

B1: NPP3B815 (bispecific antibody, human IgG1, kappa, L234A L235A)
heavy 1: EIVLTQSPATLSASPGERVTLSCSASSSVSYMNWYQQKPGCAPRRWIYDSSKLASGVPARFSGSGSGRDYTLTISSLEPEDFAVYYCQQWSRNPPTFGGGTKVEIKGGGSGGSGGCPPCGGSGGQVQLVQSGAEVKKPGSSVKVSCKASGYTFTRSTMHWVKQAPGQGLEWIGYINPSSAYTNYNQKFQGRVTLTADKSTSTAYMELSSLRSEDTAVYYCASPQVHYDYAGFPYWGCGTLVTVSSEPKSSDKTHTCPPCPAPEAAGGPSVFLFPPKPKDTLMISRTPEVTCVVVSVSHEDPEVKFNWYVDGVEVHNAKTKPREEQYNSTYRVVSVLTVLHQDWLNGKEYKCKVSNKALPAPIEKTISKAKGQPREPQVYTLPPSREEMTKNQVSLWCLVKGFYPSDIAVEWESNGQPENNYKTTPPVLDSDGSFFLYSKLTVDKSRWQQGNVFSCSVMHEALHNHYTQKSLSLSPGK
heavy 2: EVQLVESGGGRVKPGGSLRLSCAASGFTFSDYSMNWVRQAPGKGLEWVSSISSISSYVKYADSVKGRFTMSRDNAKNSLFLQMNSLRDEDMAVYYCARGHYFDYWGQGTLVTVSSASTKGPSVFPLAPSSKSTSGGTAALGCLVKDYFPEPVTVSWNSGALTSGVHTFPAVLQSSGLYSLSSVVTVPSSSLGTQTYICNVNHKPSNTKVDKKVEPKSCDKTHTCPPCPAPEAAGGPSVFLFPPKPKDTLMISRTPEVTCVVVSVSHEDPEVKFNWYVDGVEVHNAKTKPREEQYNSTYRVVSVLTVLHQDWLNGKEYKCKVSNKALPAPIEKTISKAKGQPREPQVYTLPPSREEMTKNQVSLSCAVKGFYPSDIAVEWESNGQPENNYKTTPPVLDSDGSFFLVSKLTVDKSRWQQGNVFSCSVMHEALHNRFTQKSLSLSPGK
light: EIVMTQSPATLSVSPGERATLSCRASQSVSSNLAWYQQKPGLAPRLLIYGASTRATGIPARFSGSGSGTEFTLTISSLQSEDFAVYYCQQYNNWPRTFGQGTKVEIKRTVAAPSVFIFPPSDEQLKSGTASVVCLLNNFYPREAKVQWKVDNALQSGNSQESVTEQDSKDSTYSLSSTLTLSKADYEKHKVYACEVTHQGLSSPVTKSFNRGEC
notes: HC2 carries the NPP3B56 Fab and the hole T366S, L368A, Y407V; Fc with L234A, L235A, D265S; The CPPC linker cysteines form disulfides with engineered Cys at L42 and H105 (Chothia); also called NPP3B56×CD3B2030-N106A; ENPP3×CD3 (NPP3B815)
For B1, the binding result [1] was “no binding (tested: 100 nM)”, the “Cytotox. EC50; HepG2-KO cyno ENPP3-OE; human T cells; E:T 3:1” value [2] was 79 pM and the “T-cell activation EC50; HepG2-KO cyno ENPP3-OE; human T cells; E:T 3:1” value [2] was 23 pM. For the same binder, the Kd [3] was 920 pM, the Kd [4] was 110000 pM and the binding result [5] was “no binding (tested: 100 nM)”.

— patent US20250163182A1 (Janssen / Centocor, published 2025)
